Series [1] deals with non-small-cell lung cancer cells (Calu1). The series can be described thus: In vitro potency (CellTiter-Glo, 96 h), Calu1. To be noted: Homo sapiens, Calu-1, 96 h, read-out: Calu1 IC50. It is filed as cell-based. Put shortly:
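Authenticated lines (STR), used within 2 months of resuscitation, were seeded 24 h before treatment. Exposure to ADC dilutions lasted 96 h at 37 °C in RPMI 1640 with 20% FBS; viability was quantified luminescently.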

A further series has as its target T1, neutrophil elastase (Homo sapiens, UniProt P08246).
T1 sequence (P08246 30-267): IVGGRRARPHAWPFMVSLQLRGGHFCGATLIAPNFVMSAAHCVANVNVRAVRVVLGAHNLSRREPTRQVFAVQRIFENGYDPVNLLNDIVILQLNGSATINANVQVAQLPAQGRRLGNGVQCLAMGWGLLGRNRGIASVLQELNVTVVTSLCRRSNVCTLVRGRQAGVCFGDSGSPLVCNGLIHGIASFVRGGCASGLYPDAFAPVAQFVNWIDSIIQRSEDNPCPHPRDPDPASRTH
The series can be described thus: Neutrophil elastase assay of ADCs. It is filed as biochemical. To be noted: 8-load ADC, 37 C, 3 h, pH 7.5, FIG. 6A. As for the experimental part: To a mixture of 8-load ADC (5 ug), buffer (100 mM tris, 75 mM NaCl, pH 7.5; final concentration), and neutrophil elastase (100 ng) was added water to 20 uL. The reaction was incubated at 37 C for 3 h and then immediately analyzed by a QToF mass spectrometer.

Series [2] has as its system acute myeloid leukemia cells (MOLM-13). Briefly: In vitro potency (CellTiter-Glo, 96 h), MOLM-13. It is filed as cell-based. To be noted: Homo sapiens, MOLM-13, 96 h, read-out: MOLM-13 IC50, Table 28; CPT free drugs; acute myeloid leukemia cells MOLM-13; 96 h, CellTiter-Glo. Put shortly: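 IC50 (ng/mL) was derived from growth inhibition of STR-authenticated lines held in culture under 2 months after thawing. Cells were grown in RPMI 1640 plus 20% FBS and treated with ADC dilution series for 96 h at 37 °C.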
On the technique in general: In ATP-based viability assays light output follows the ATP content of the culture.

Series [3] relates to HPAFII cell line (Ag1 upregulated). The series can be described thus: In vitro cytotoxicity of Ag1 ADCs, HPAFII cells. It is filed as cell-based. To be noted: in words, Tables 5a and 5b. The procedure: In vitro cytotoxicity. The cytotoxicity of a tripeptide-based Antibody Drug Conjugate was measured by a cell proliferation assay employing the protocol described in Promega Corp. Technical Bulletin TB288; and Mendoza et al., 2002, Cancer Res. 62:5485-5488), the methods of which are specifically incorporated by reference herein. Briefly, an aliquot of 40 μl of cell culture containing about 400 cells in medium is deposited in each well of a 384-well, opaque-walled plate. A 10 μL aliquot of free drug or Ligand-Drug Conjugate is added to the experimental wells and incubated for 96 h and are then equilibrated to room temperature for approximately 30 minutes whereupon a volume of CellTiter-Glo™ reagent equal to the volume of cell culture medium present in each well is added. The contents are mixed for 2 minutes on an orbital shaker to induce cell lysis and the plate is incubated at room temperature for 10 minutes to stabilize the luminescence signal for recordation.
The italicized values in Tables 5, 5a, and 5b indicate the percentage of cells remaining after 96 hr incubation at the maximum concentration of drug added. For convenience the numbering for the library members of Tables 5 and 5A are retained for the corresponding Drug linker compounds that are incorporated into the ADC of Tables 5, 5a, and 5b.

For series [4], the system named is h00-7, non-binding control antibody h00 conjugated with mp-Leu-Ala-Glu-PABC-MMAE (Drug Linker compound 7).
Series [5] deals with h00-37, non-binding control antibody h00 conjugated with mp-val-cit-PABC-MMAE (compound 37).
Series [6] relates to h00-5, non-binding control antibody h00 conjugated with mp-D-Leu-Ala-Glu-PABC-MMAE (Drug Linker compound 5).

The values that follow come from patent US20240207427A1, “SELECTIVE DRUG RELEASE FROM INTERNALIZED CONJUGATES OF BIOLOGICALLY ACTIVE COMPOUNDS” (priority 2021, published 2024).

As a reminder, the IC50 is the midpoint of a concentration-inhibition curve. On to `CC[C@@]1(O)C(=O)OCc2c1cc1n(c2=O)Cc2c-1nc1cc3c(cc1c2CN)CC=C3` [Compound 5], for which the values for the IC50 in series [1] and in series [2] were 129 nM and 258 nM, respectively. In addition, the “percentage of drug cleaved from the heavy chain by neutrophil elastase” value at neutrophil elastase is recorded as “lower than that found for non-targeted ADC 37”.
Regarding `CC[C@@]1(O)C(=O)OCc2c1cc1n(c2=O)Cc2c-1nc1cc3c(cc1c2CN(C)CCCN)OCO3` [Compound 8, (5S)-14-[[3-aminopropyl(methyl)amino]methyl]-5-ethyl-S-hydroxy-7,18,20-trioxa-11,24-diazahexacyclo [11.11.0.02,11.04,9.015,23.017,21]tetracosa-1(13),2,4(9),14,16,21,23-heptaene-6,10-dione; 2,2,2-trifluoroacetic acid], in series [3], the “cytotoxicity compared with comparator dipeptide-based ADC (1)” value is “less cytotoxic” and the “efficacy compared with comparator dipeptide-based ADC (1)” value was “similarly efficacious”.
Turning to Cathepsin B, the “percentage of drug cleaved from the heavy chain (QToF mass spectrometry after 3 h at 37 C, pH 4.5)” value is “percentage of drug cleaved from the heavy chain of non-targeted ADCs 5 and 7 in vitro by Cathepsin B is similar to that found for non-targeted ADC 37” in series [4]; “percentage of drug cleaved from the heavy chain of non-targeted ADCs 5 and 7 in vitro by Cathepsin B is similar to that found for non-targeted ADC 37” in series [5]; “percentage of drug cleaved from the heavy chain of non-targeted ADCs 5 and 7 in vitro by Cathepsin B is similar to that found for non-targeted ADC 37” in series [6].
Turning to neutrophil elastase, the “percentage of drug cleaved from the heavy chain (QToF mass spectrometry after 3 h at 37 C)” value is reported as “the h00-5 conjugate ... has its heavy chain cleaved by neutrophil elastase to a significantly lower extent than h00-7” in series [4], “percentage of drug cleaved from the heavy chain of non-targeted ADC 5 in vitro by neutrophil elastase is lower than that found for non-targeted ADC 37” in series [5] and “no proteolosis of h00-5 by neutrophil elastase was observed” in series [6].
